Consider 1 substance from PMC4467794.

For this assay, the target named is Mcx1-3xFLAG, wildtype, purified recombinant (S. cerevisiae) (UniProt P38323). Briefly: co-IP.
Sequence of Mcx1-3xFLAG, wildtype, purified recombinant (S. cerevisiae) (P38323 14-520): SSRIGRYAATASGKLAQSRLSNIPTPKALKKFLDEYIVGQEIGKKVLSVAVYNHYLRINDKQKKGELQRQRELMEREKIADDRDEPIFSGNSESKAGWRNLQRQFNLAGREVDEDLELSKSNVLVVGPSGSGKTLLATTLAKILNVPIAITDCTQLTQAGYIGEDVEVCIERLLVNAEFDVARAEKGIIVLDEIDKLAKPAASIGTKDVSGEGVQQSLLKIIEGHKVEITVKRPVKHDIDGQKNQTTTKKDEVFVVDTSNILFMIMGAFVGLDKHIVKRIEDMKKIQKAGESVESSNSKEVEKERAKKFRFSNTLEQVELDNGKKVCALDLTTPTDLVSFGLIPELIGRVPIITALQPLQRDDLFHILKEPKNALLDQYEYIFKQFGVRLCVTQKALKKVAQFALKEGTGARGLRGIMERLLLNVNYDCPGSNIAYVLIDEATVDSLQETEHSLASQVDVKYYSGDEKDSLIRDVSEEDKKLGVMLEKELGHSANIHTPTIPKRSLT

As to “apoHem1 (PLP-free Hem1, yeast ALA synthase), purified recombinant (from UniProt P09950 23-548) (enzyme)”, the fold amount bound relative to holoHem1 amounted to 10 fold.
